Laboratory results taken from patent US20240398899A1 (priority 2021, published 2024).
Like-named read-outs stand apart in the source and are kept apart here.

Tests used:
Swiss albino mice = test: Passive avoidance test, scopolamine induced dementia; assay type: in vivo, Mus musculus (Swiss Albino)
Procedure: Required amount of recombinant lectin protein having SEQ ID NO: 1 was diluted in sterile Tris Buffered Saline (TBS) to achieve desired final concentration, i.e 0.1 mg/mL, 0.05 mg/mL, 0.025 mg/mL, at the doses of 0.5 mg/kg, 0.25 mg/kg and 0.125 mg/kg respectively. Formulation was prepared fresh daily.
TBS buffer and 0.5% CMC were used as a vehicle for preparation of test item, recombinant Lectin having SEQ ID NO: 1 and reference item formulation, respectively Male Mus musculus (Swiss Albino) aged between 8-10 weeks procured from GENTOX Bio services Pvt Ltd, Hyderabad. Animals were classified into 6 groups and acclimatized for two weeks. Animals were identified by cage labelling and tail marking and were randomized on the basis of their body weight.
(§1) Healthy male Swiss albino mice (n=48) were selected and randomized based on body weight (n=8 per Group) into 6 groups as mentioned in table no-1. The control group G1 was treated intravenously with vehicle daily till the experiment completion. Group G2 was considered as negative control and treated with vehicle. […] Group G4, G5 &G6 animals were treated with the test item recombinant lectin protein having SEQ ID NO: 1 at the dose of 0.5 mg/kg, 0.25 mg/kg and 0.125 mg/kg, respectively. All the test items were given intravenously (i.v) daily at the dose volume of 5 ml/kg for 14 Days. The body weight was recorded daily throughout the experimental period. […] One hour after the last dose of test items (on Day 14) all the animals were injected with scopolamine hydrobromide at the dose of 2.5 mg/kg, i.p., except the normal control group G1. Passive avoidance test was conducted 30 min after scopolamine injection.
This learning and memory test were performed in two chambers, which has square boxes, identical size, juxtaposed as illuminated and dark. A lamp was placed above one chamber for illumination. Each test involved two separate trials, a training trial and a test trial.
For the training trial, the mice were initially placed in the illuminated chamber. When the mice entered the dark chamber, an electrical shock (0.5 mA) for 3 sec. was delivered through stainless steel rods. The latency times once the mice entered from light compartment to the dark compartment was recorded using in-build timer. A test trial was performed 24 h following the training trial, and latency times to re-enter the dark chamber was measured up to 5 min

Calbindin D = test: Parkinson biomarker multiplex analysis/ELISA, MPP+ damaged SH-SY5Y; assay type: cell-based, human; settings: MPP + Iodide (2 mM)
Procedure: (§2) After overnight incubation as in the previous examples, cells were treated with recombinant lectin protein having SEQ ID NO: 1 at different concentrations ranging from 0.001 μg/ml-1 μg/ml for 24 h for Parkinson disease and 0.01 μg/ml-25 μg/ml for 24 h for Alzheimer's disease. • Parkinson Disease: After 24 h of pre-treatment with recombinant lectin protein having SEQ ID NO: 1, cells were exposed (MPP+) for another 24 h. Cells treated with MPP+Iodide were included as Control. […] The cells treated with Galantamine were included as positive Control.
(§3) The levels of markers were determined by multiplex analysis as: Cell culture supernatants were diluted (1:2) with Calibrator Diluent. 50 μl of standard or sample was added per well. 50 μl of the microparticle cocktail was added to each well of the microplate and covered with a foil plate sealer. The plate was incubated for 2 hours at room temperature on a horizontal orbital microplate shaker. The plate was washed using a magnetic device designed to accommodate a microplate. Washing was done by applying the magnet to the bottom of the microplate, allowing 1 minute before removing the liquid, filling each well with wash buffer (100 μl) and allowing 1 minute before removing the liquid again. 50 μl of diluted Biotin-Antibody Cocktail was added to each well. Covered the plate with a foil plate sealer and incubated for 1 hour at room temperature on the shaker. Repeated the wash step. 50 μl of diluted Streptavidin-PE was added to each well. The plate was securely covered with a foil plate sealer and incubated for 30 minutes at room temperature on the shaker. Repeated the wash step. The microparticles were resuspended by adding 100 μl of Wash Buffer to each well. The plate was incubated for 2 minutes on the shaker and read within 90 minutes using Magpix® multiplex machine. Levels of biomarkers for Parkinson's and Alzheimer's disease were estimated using Magpix® multiplex machine.
(§4) For Parkinson's the percent modulation in each sample was determined as follows:
(§5) [{Concentration of biomarkers(pg/ml) in SEQ ID NO:1+MPP+Iodide treated cells)−Concentration of biomarkers(pg/ml) in Control cells(MPP+Iodide alone treated)}/Concentration of biomarkers(pg/ml) in Control cells(MPP+Iodide alone treated)]*100

Park7/DJ-1 = test: as above; assay type: cell-based, human; settings: MPP + Iodide (2 mM)
Procedure: as §2, §3, §4, §5

Serotonin = test: as above; assay type: cell-based, human; settings: MPP + Iodide (2 mM)
Procedure: as §2, §3, §4, §5

Dopamine = test: as above; assay type: cell-based, human; settings: MPP + Iodide (2 mM)
Procedure: as §2, §3, §4, §5

S100b = test: as above; assay type: cell-based, human; settings: MPP + Iodide (2 mM)
Procedure: as §2, §3, §4, §5

α-Synuclein = test: as above; assay type: cell-based, human; settings: 0.001 μg/mL to 1 μg/mL, MPP+ iodide
Procedure: as §2, §3, §4, §5

Acetylcholinesterase = settings: mice; for brain Acetylcholine esterase Mean: scopolamine 2.5 mg/kg i.p.
Procedure: as §1
After passive avoidance test screening models of memory, the animals were sacrificed humanely. The whole brain was carefully removed from the skull and weighed. Brain was dissected into two portions
10% w/v brain homogenate (100 mg/mL) was prepared by homogenizing it in ice-chilled phosphate buffer. The homogenate was subsequently centrifuged using a refrigerated centrifuge at 3000 rpm for 10 min, and the supernatant was separated and used for the biochemical estimations.
Following biomarkers was estimated using ELISA kit as per manufacturer's instruction. • Brain NGF (Nerve Growth Factor), CUSABIO, Catalog No. CSB-E04684m • Acetylcholinesterase, CUSABIO, Catalog No. CSB-E17521m • TNF alpha, CUSABIO, Catalog No. CSB-E04741m

B1: SEQ ID NO: 1: variant of the S. rolfsii lectin amino acid sequence (reported as Rec-2 in WO2010/095143) (protein)
chain: TYKITVRVYQTNPDAFFHPVEKTVWKYANGGTWTITDDQHVLTMGGSGTSGTLRFHADNGESFTATFGVHNYKRWCDIVTNLAADETGMVINQQYYSQKNREEARERQLSNYQVKNAKGRNFQIVYTEAEGNDLHANLIIG
For B1, the “% increase in Transfer Latency Time” value (Swiss albino mice; G4: 0.5 mg/kg i.v. qdx14, compared with G2 (scopolamine)) was 33.2%, the “Mean Transfer Latency Time” value (Swiss albino mice; G4: 0.5 mg/kg i.v. qdx14, scopolamine 2.5 mg/kg i.p.) was 85.26 s and the “Mean Transfer Latency Time” value (Swiss albino mice; G4: 0.5 mg/kg i.v. qdx14, scopolamine 2.5 mg/kg i.p., listed as SEQ ID NO 1) was 85.26 ± 6.52 s. For the same molecule, the “% increase in Transfer Latency Time” value (Swiss albino mice; G5: 0.25 mg/kg i.v. qdx14, compared with G2 (scopolamine)) was 29.4%, the “Mean Transfer Latency Time” value (Swiss albino mice; G5: 0.25 mg/kg i.v. qdx14, scopolamine 2.5 mg/kg i.p.) was 80.58 s and the “Mean Transfer Latency Time” value (Swiss albino mice; G5: 0.25 mg/kg i.v. qdx14, scopolamine 2.5 mg/kg i.p., listed as SEQ ID NO 1) was 80.58 ± 9.08 s. For the same molecule, the “% increase in Transfer Latency Time” value (Swiss albino mice; G6: 0.125 mg/kg i.v. qdx14, compared with G2 (scopolamine)) was 24.9%, the “Mean Transfer Latency Time” value (Swiss albino mice; G6: 0.125 mg/kg i.v. qdx14, scopolamine 2.5 mg/kg i.p.) was 75.81 s and the “Mean Transfer Latency Time” value (Swiss albino mice; G6: 0.125 mg/kg i.v. qdx14, scopolamine 2.5 mg/kg i.p., listed as SEQ ID NO 1) was 75.81 ± 7.75 s. For the same molecule, the “% Change of Biomarkers markers (with respect to Control) Calbindin D” value (Calbindin D; 0.001 μg/mL) was 9.7%, the “% Change of Biomarkers markers (with respect to Control) Calbindin D” value (Calbindin D; 0.01 μg/mL) was 8.2% and the “% Change of Biomarkers markers (with respect to Control) Calbindin D” value (Calbindin D; 0.05 μg/mL) was 1.7%. The “% Change of Biomarkers markers (with respect to Control) Calbindin D” value (Calbindin D; 0.1 μg/mL) was 6.6%, the “% Change of Biomarkers markers (with respect to Control) Calbindin D” value (Calbindin D; 1 μg/mL) was −1.6% and the “% Change of Biomarkers markers (with respect to Control) Park7/DJ-1” value (Park7/DJ-1; 0.001 μg/mL) was −2.5%. For the same molecule, the “% Change of Biomarkers markers (with respect to Control) Park7/DJ-1” value (Park7/DJ-1; 0.01 μg/mL) was −3.6%, the “% Change of Biomarkers markers (with respect to Control) Park7/DJ-1” value (Park7/DJ-1; 0.05 μg/mL) was −7.1% and the “% Change of Biomarkers markers (with respect to Control) Park7/DJ-1” value (Park7/DJ-1; 0.1 μg/mL) was −10.4%. The “% Change of Biomarkers markers (with respect to Control) Park7/DJ-1” value (Park7/DJ-1; 1 μg/mL) was −12.6%, the “% Change of Biomarkers markers (with respect to Control) Serotonin” value (“% Change … (with respect to Control) Serotonin” below) (Serotonin; 0.001 μg/mL) was 15.4% and the “% Change … (with respect to Control) Serotonin” value (Serotonin; 0.01 μg/mL) was 5.1%. The “% Change … (with respect to Control) Serotonin” value (Serotonin; 0.05 μg/mL) was 6.9%, the “% Change … (with respect to Control) Serotonin” value (Serotonin; 0.1 μg/mL) was 7.9% and the “% Change … (with respect to Control) Serotonin” value (Serotonin; 1 μg/mL) was 23.5%. The “% Change of Biomarkers markers (with respect to Control) Dopamine” value (“% Change … (with respect to Control) Dopamine” below) (Dopamine; 0.001 μg/mL) was 50.6%, the “% Change … (with respect to Control) Dopamine” value (Dopamine; 0.01 μg/mL) was 82.5% and the “% Change … (with respect to Control) Dopamine” value (Dopamine; 0.05 μg/mL) was 24.7%. For the same molecule, the “% Change … (with respect to Control) Dopamine” value (Dopamine; 0.1 μg/mL) was 28.9%, the “% Change … (with respect to Control) Dopamine” value (Dopamine; 1 μg/mL) was 22.9% and the “% Change of Biomarkers markers (with respect to Control) S100b” value (shortened to “% Change … (with respect to Control) S100b”) (S100b; 0.001 μg/mL) was −11%. For the same molecule, the “% Change … (with respect to Control) S100b” value (S100b; 0.01 μg/mL) was 9%, the “% Change … (with respect to Control) S100b” value (S100b; 0.05 μg/mL) was −6.7% and the “% Change … (with respect to Control) S100b” value (S100b; 0.1 μg/mL) was −6.5%. The “% Change … (with respect to Control) S100b” value (S100b; 1 μg/mL) was −11.4%, the “modulation of α-Synuclein” value (α-Synuclein) was “no significant modulation” and the “effect on scopolamine-increased AChE activity in the brain” value (Acetylcholinesterase; 0.5 mg/kg pretreatment) was “significantly (p<0.001) attenuated”. For the same molecule, the “brain Acetylcholine esterase Mean” value (Acetylcholinesterase; G4: 0.5 mg/kg i.v. qdx14) was 4.47 mU/ml, the “brain Acetylcholine esterase Mean” value (Acetylcholinesterase; G5: 0.25 mg/kg i.v. qdx14) was 6.27 mU/ml and the “brain Acetylcholine esterase Mean” value (Acetylcholinesterase; G6: 0.125 mg/kg i.v. qdx14) was 6.59 mU/ml.
